From PMC2788773 (Molecular cell, 2009)

Legend:
Assay in all cases: pull-down
[1] = molecular target: T1, His6-S-Rad54-T132A (S. cerevisiae (budding yeast), UniProt P32863 1-898, T132A)
T1 sequence (looked up): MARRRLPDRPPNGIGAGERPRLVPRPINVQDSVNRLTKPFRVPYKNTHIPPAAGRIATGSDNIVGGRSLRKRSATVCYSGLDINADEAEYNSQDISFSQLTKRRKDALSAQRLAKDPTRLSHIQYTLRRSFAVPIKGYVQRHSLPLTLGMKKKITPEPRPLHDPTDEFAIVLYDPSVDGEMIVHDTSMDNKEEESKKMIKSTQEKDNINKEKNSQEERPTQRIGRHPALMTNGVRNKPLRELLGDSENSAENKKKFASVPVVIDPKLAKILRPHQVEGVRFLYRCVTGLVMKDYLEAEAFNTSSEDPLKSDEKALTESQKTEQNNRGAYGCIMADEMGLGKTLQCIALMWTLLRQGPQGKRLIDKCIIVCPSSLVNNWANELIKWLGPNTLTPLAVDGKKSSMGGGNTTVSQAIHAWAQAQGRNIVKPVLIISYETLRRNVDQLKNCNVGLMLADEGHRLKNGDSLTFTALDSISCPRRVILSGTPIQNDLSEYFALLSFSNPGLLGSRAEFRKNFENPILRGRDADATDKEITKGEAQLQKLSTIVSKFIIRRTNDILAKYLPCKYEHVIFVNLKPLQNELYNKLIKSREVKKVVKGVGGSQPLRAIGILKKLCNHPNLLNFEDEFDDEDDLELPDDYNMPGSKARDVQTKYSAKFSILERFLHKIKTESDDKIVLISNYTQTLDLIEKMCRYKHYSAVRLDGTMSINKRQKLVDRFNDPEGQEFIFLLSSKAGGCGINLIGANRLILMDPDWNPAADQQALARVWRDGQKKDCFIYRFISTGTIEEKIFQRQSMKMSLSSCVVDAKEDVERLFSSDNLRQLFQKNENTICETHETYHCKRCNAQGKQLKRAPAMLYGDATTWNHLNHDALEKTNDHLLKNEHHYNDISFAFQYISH

[2] = molecular target: T2, His6-S-Rad54-T132D (S. cerevisiae (budding yeast), UniProt P32863 1-898, T132D)
T2 sequence (looked up): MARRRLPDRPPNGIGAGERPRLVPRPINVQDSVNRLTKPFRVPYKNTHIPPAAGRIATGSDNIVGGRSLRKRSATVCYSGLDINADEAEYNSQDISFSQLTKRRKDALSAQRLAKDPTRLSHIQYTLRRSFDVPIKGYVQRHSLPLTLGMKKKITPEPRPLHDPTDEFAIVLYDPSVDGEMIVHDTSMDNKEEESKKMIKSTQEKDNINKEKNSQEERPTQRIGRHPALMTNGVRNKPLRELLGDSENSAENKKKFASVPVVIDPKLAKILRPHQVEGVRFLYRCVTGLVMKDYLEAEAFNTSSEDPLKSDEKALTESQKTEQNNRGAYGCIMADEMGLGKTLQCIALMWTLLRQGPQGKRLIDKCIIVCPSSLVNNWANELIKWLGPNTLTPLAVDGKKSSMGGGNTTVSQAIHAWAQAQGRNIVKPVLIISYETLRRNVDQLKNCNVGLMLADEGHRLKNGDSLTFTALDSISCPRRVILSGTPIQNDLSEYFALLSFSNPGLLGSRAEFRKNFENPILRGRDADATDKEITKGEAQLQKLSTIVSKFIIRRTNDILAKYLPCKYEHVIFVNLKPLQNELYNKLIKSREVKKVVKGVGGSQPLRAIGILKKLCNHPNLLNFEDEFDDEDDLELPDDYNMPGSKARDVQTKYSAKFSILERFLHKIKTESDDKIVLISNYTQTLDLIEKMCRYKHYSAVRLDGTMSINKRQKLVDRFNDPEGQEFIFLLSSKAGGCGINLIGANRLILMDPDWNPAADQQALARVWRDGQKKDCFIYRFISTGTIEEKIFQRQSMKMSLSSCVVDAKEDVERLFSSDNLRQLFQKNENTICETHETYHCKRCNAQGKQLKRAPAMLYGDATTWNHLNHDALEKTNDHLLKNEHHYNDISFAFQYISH

[3] = molecular target: T3, His6-S-Rad54 (S. cerevisiae (budding yeast), UniProt P32863 1-898)
T3 sequence (looked up): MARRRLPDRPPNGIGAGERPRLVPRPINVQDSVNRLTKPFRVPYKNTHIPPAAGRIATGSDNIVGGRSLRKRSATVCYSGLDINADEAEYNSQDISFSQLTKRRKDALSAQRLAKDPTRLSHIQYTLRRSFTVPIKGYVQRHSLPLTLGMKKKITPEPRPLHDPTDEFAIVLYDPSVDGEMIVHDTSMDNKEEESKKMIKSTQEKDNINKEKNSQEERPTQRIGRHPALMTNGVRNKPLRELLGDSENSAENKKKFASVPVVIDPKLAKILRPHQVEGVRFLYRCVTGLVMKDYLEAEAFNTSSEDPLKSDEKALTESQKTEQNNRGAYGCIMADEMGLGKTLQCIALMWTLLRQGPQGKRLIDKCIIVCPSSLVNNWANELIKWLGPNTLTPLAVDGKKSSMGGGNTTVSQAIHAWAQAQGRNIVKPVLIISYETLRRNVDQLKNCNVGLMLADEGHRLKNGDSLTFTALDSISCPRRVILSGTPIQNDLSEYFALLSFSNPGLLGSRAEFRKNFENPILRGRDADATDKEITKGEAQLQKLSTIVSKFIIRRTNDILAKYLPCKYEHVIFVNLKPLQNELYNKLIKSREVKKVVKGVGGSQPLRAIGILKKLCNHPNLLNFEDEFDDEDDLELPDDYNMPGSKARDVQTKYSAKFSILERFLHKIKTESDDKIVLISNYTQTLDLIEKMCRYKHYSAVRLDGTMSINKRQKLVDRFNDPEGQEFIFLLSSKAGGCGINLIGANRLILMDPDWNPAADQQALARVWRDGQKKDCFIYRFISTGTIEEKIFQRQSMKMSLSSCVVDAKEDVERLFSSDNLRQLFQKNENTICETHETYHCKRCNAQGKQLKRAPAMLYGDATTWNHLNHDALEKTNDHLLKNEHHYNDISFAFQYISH

binding result [1]: binds | fold reduction in Rad51 binding compared to Rad54 [2]: 2 fold | binding result [3]: binds
B1: Rad51 (natural protein, S. cerevisiae (budding yeast), UniProt P25454 1-400, looked up)
chain: MSQVQEQHISESQLQYGNGSLMSTVPADLSQSVVDGNGNGSSEDIEATNGSGDGGGLQEQAEAQGEMEDEAYDEAALGSFVPIEKLQVNGITMADVKKLRESGLHTAEAVAYAPRKDLLEIKGISEAKADKLLNEAARLVPMGFVTAADFHMRRSELICLTTGSKNLDTLLGGGVETGSITELFGEFRTGKSQLCHTLAVTCQIPLDIGGGEGKCLYIDTEGTFRPVRLVSIAQRFGLDPDDALNNVAYARAYNADHQLRLLDAAAQMMSESRFSLIVVDSVMALYRTDFSGRGELSARQMHLAKFMRALQRLADQFGVAVVVTNQVVAQVDGGMAFNPDPKKPIGGNIMAHSSTTRLGFKKGKGCQRLCKVVDSPCLPEAECVFAIYEDGVGDPREEDE
